According to patent US20150183867A1 (AbbVie / Abbott, published 2015):
Values joined by “and” are separate entries in the source; they are usually repeats but may differ in a detail not shown here. Identical values can stand only once. One block for each binder: values may come before it.

Assays:
Aβ1-42 [1] = molecular target: T1, Aβ1-42 (UniProt P05067 672-713); assay: Aβ 1-42 ELISA, peptide on plate; C-terminal VD
T1 construct: domain: Aβ1-42; Aβ 1-42 is a part of it; also called A beta
Protocol: (§1) ELISA assays were performed to screen for antibodies that bind a desired target antigen as follows. Maxisorb NUNC Immuno plates were coated with 100 μL/well of 1 μg/ml of Aβ1-42 diluted in coating buffer overnight at 6° C. Plates were washed three times with PBS containing 0.02% Tween 20. Blocking solution was prepared by dissolving the blocking reagent for ELISA (Roche) in 100 mL water and then diluted further 1:10 prior to use. Plates were blocked by the addition of 265 μL/well blocking solution for 2 hours at room temperature. Plates were washed three times after blocking with PBS containing 0.02% Tween 20.
(§2) Antibody or DVD-Igs were diluted to 100 ng/μL in PBST+0.5% BSA and serially diluted 1:3. One hundred microliters of antibody or DVD-Ig preparations was added to the plate and incubated for 2 hour at room temperature. Wells were washed three times with PBS containing 0.02% Tween 20.
(§3) One hundred microliters of TMB solution was added to each well and incubated for 10 minutes. TMB solution was prepared by mixing 20 mL 100 mM natrium-acetate pH4.9 with 200 μL TMB solution (Roche #92817060) and 29.5 μL 3% H₂O₂. The reaction was stopped by the addition of 50 μL 1N sulphuric acid. Plates were read spectrophotometrically at a wavelength of 450 nm.

IL-18 = molecular target: T2, IL-18 (UniProt Q14116 37-193, limits assumed); assay: direct bind ELISA, antigen on plate; N-terminal VD
T2 construct: Bought reagent
Protocol: (§4) Enzyme Linked Immunosorbent Assays to screen for antibodies that bind a desired target antigen were performed as follows. High bind ELISA plates (Corning Costar #3369, Acton, Mass.) were coated with 100 μL/well of 10 μg/ml of desired target antigen (R&D Systems, Minneapolis, Minn.) or desired target antigen extra-cellular domain/FC fusion protein (R&D Systems, Minneapolis, Minn.) or monoclonal mouse anti-polyHistidine antibody (R&D Systems # MAB050, Minneapolis, Minn.) in phosphate buffered saline (10×PBS, Abbott Bioresearch Center, Media Prep# MPS-073, Worcester, Mass.) overnight at 4° C. Plates were washed four times with PBS containing 0.02% Tween 20. Plates were blocked by the addition of 300 μL/well blocking solution (non-fat dry milk powder, various retail suppliers, diluted to 2% in PBS) for 1/2 hour at room temperature. Plates were washed four times after blocking with PBS containing 0.02% Tween 20.
(§5) One hundred microliters of antibody or DVD-Ig preparations diluted in blocking solution as described above was added to the desired target antigen plate or desired target antigen/FC fusion plate or the anti-polyHistidine antibody/His tagged desired target antigen plate prepared as described above and incubated for 1 hour at room temperature. Wells were washed four times with PBS containing 0.02% Tween 20.
(§6) One hundred microliters of 10 ng/mL goat anti-human IgG-FC specific HRP conjugated antibody (Southern Biotech #2040-05, Birmingham, Ala.) was added to each well of the desired target antigen plate or anti-polyHistidine antibody/Histidine tagged desired target antigen plate. Alternatively, one hundred microliters of 10 ng/mL goat anti-human IgG-kappa light chain specific HRP conjugated antibody (Southern Biotech #2060-05 Birmingham, Ala.) was added to each well of the desired target antigen/FC fusion plate and incubated for 1 hour at room temperature. Plates were washed 4 times with PBS containing 0.02% Tween 20.

RAGE/FC Chimera [2] = molecular target: T3, RAGE/FC Chimera (UniProt Q15109 23-342); assay: direct bind ELISA, antigen on plate; N-terminal VD
T3 construct: extracellular domain; Bought reagent; not shown: Fc region of the bought chimera
Protocol: as §4, §5, §6

Aβ1-42 [3] = molecular target: T1, Aβ1-42; assay: Aβ 1-42 ELISA, peptide on plate; N-terminal VD
Protocol: as §1, §2, §3

RAGE/FC Chimera [4] = molecular target: T3, RAGE/FC Chimera; assay: direct bind ELISA, antigen on plate; C-terminal VD
Protocol: as §4, §5, §6

[5] = molecular target: T4, Repulsive Guidence Molecule A (UniProt Q96B86 48-422, limits assumed); assay: SPR (Biacore), antibody captured; parent antibody
T4 construct: Bought reagent for the ELISA; also called RGM-A; RGMa
T4 sequence (looked up): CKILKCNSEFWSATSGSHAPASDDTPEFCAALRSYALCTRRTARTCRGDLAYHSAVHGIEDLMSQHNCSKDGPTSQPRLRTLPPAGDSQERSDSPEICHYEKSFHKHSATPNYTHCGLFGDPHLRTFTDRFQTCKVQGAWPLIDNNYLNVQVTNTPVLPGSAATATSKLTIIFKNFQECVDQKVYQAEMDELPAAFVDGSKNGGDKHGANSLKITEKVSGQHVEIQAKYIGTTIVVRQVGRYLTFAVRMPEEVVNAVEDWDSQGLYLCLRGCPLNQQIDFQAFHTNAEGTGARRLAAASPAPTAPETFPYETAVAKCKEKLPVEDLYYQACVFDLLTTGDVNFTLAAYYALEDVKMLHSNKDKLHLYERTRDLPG
Protocol: The BIACORE assay (Biacore, Inc, Piscataway, N.J.) determines the affinity of antibodies or DVD-Ig with kinetic measurements of on-rate and off-rate constants. Binding of antibodies or DVD-Ig to a target antigen (for example, a purified recombinant target antigen) is determined by surface plasmon resonance-based measurements with a Biacore® 1000 or 3000 instrument (Biacore® AB, Uppsala, Sweden) using running HBS-EP (10 mM HEPES [pH 7.4], 150 mM NaCl, 3 mM EDTA, and 0.005% surfactant P20) at 25° C. All chemicals are obtained from Biacore® AB (Uppsala, Sweden) or otherwise from a different source as described in the text. For example, approximately 5000 RU of goat anti-mouse IgG, (Fcγ), fragment specific polyclonal antibody (Pierce Biotechnology Inc, Rockford, Ill.) diluted in 10 mM sodium acetate (pH 4.5) is directly immobilized across a CMS research grade biosensor chip using a standard amine coupling kit according to manufacturer's instructions and procedures at 25 μg/ml. Unreacted moieties on the biosensor surface are blocked with ethanolamine. Modified carboxymethyl dextran surface in flowcell 2 and 4 is used as a reaction surface. Unmodified carboxymethyl dextran without goat anti-mouse IgG in flow cell 1 and 3 is used as the reference surface. For kinetic analysis, rate equations derived from the 1:1 Langmuir binding model are fitted simultaneously to association and dissociation phases of all eight injections (using global fit analysis) with the use of Biaevaluation 4.0.1 software. Purified antibodies or DVD-Ig are diluted in HEPES-buffered saline for capture across goat anti-mouse IgG specific reaction surfaces. Antibodies or DVD-Ig to be captured as a ligand (25 μg/ml) are injected over reaction matrices at a flow rate of 5 μl/min. […] The equilibrium dissociation constant (M) of the reaction between antibodies or DVD-Igs and the target antigen is then calculated from the kinetic rate constants by the following formula: KD=koff/kₒₙ. Binding is recorded as a function of time and kinetic rate constants are calculated.

[6] = molecular target: T4, Repulsive Guidence Molecule A; assay: direct bind ELISA, antigen on plate; parent antibody
Protocol: as §4, §5, §6

IGF-II = molecular target: T5, IGF-II (UniProt P01344 25-91); assay: direct bind ELISA, antigen on plate; N-terminal VD
T5 construct: Bought reagent; also called IGF2; IGF-2
Protocol: as §4, §5, §6

IGF-I = molecular target: T6, IGF-I (UniProt P05019 49-118); assay: direct bind ELISA, antigen on plate; N-terminal VD
T6 construct: Bought reagent; also called IGF1; IGF-1
Protocol: as §4, §5, §6

RAGE/FC Chimera [7] = molecular target: T3, RAGE/FC Chimera; assay: direct bind ELISA, antigen on plate; parent antibody
Protocol: as §4, §5, §6

Recombinant Human IL-1β = molecular target: T7, Recombinant Human IL-1β (human, UniProt P01584 117-269); assay: as above
T7 construct: Bought reagent; also called IL-1B
Protocol: as §4, §5, §6

T3 sequence (Q15109 23-342, change not shown): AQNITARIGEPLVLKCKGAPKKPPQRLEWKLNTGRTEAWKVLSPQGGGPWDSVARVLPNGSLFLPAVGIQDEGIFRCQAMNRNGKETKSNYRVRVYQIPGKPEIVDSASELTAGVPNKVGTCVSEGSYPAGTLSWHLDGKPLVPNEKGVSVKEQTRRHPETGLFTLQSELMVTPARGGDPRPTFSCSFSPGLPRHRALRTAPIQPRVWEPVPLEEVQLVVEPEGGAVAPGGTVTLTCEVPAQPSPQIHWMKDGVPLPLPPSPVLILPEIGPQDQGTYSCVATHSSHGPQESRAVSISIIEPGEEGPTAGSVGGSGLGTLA

B1: DVD232 (bispecific antibody, human IgG1, kappa)
heavy: not shown
light: EIVMTQSPATLSVSPGERATLSCRASESISSNLAWYQQKPGQAPRLFIYTASTRATDIPARFSGSGSGTEFTLTISSLQSEDFAVYYCQQYNNWPSITFGQGTRLEIKRTVAAPDVVMTQSPLSLPVTPGEPASISCKSSQSLLDSDGKTYLNWLLQKPGQSPQRLIYLVSKLDSGVPDRFSGSGSGTDFTLKISRVEAEDVGVYYCWQGTHFPRTFGQGTKVEIKRTVAAPSVFIFPPSDEQLKSGTASVVCLLNNFYPREAKVQWKVDNALQSGNSQESVTEQDSKDSTYSLSSTLTLSKADYEKHKVYACEVTHQGLSSPVTKSFNRGEC
notes: DVD-Ig; also called VD232H/VD232L
- EC50 (Aβ1-42 [1]): 0.048 nM
- EC50 (IL-18): 0.68 nM

B5: DVD230 (bispecific antibody, human IgG1, kappa)
heavy: not shown
light: QSVLTQPPSVSAAPGQKVTISCSGSSSNIENNHVSWYQQLPGTAPKLLIYDNNKRPSGIPDRFSGSKSGTSATLGITGLQTGDEADYYCETWDTSLSAGRVFGGGTKLTVLGQPKAAPDVVMTQSPLSLPVTPGEPASISCKSSQSLLDSDGKTYLNWLLQKPGQSPQRLIYLVSKLDSGVPDRFSGSGSGTDFTLKISRVEAEDVGVYYCWQGTHFPRTFGQGTKVEIKRTVAAPSVFIFPPSDEQLKSGTASVVCLLNNFYPREAKVQWKVDNALQSGNSQESVTEQDSKDSTYSLSSTLTLSKADYEKHKVYACEVTHQGLSSPVTKSFNRGEC
notes: DVD-Ig; also called VD230H/VD230L
- EC50 (Aβ1-42 [1]): 0.039 nM
- EC50 (IGF-II): 2.44 nM
- EC50 (IGF-I): 4.84 nM

B6: DVD233 (bispecific antibody, human IgG1, kappa)
heavy: not shown
light: DVVMTQSPLSLPVTPGEPASISCKSSQSLLDSDGKTYLNWLLQKPGQSPQRLIYLVSKLDSGVPDRFSGSGSGTDFTLKISRVEAEDVGVYYCWQGTHFPRTFGQGTKVEIKRTVAAPQIVLIQSPAIMSASPGEKVTMTCSASSSVSYMYWYQQKPGSSPRLLIYDTSNLASGVPVRFSGSGSGTSYSLTISRMEAEDAATYYCQQWSGYPYTFGGGTKLEIKRTVAAPSVFIFPPSDEQLKSGTASVVCLLNNFYPREAKVQWKVDNALQSGNSQESVTEQDSKDSTYSLSSTLTLSKADYEKHKVYACEVTHQGLSSPVTKSFNRGEC
notes: DVD-Ig; also called VD233H/VD233L
- EC50 (Aβ1-42 [3]): 0.013 nM

B7: AB060 (antibody, human IgG1, kappa, V domains shown)
VH: QIQLVQSGPELKKPGETVKISCKASGYTFTNFGMNWVKQAPGKGLKWMGYINTNTGESIYSEEFKGRFAFSLETSASTAYLQINNLKNEDTATYFCARSRMVTAYGMDYWGQGTSVTVSS
VL: DIVMTQSQKFMSTSVGDRVSITCKASQNVGTAVAWYQQRPGQSPKLLIFSASNRYTGVPDRFTGSGSGTDFTLTLSNMQPEDLADYFCQQYSSYPLTFGVGTKLELKR
- EC50 (RAGE/FC Chimera [7]): 1.69 nM and 0.64 nM

B8: AB032 (antibody, human IgG1, kappa, V domains shown)
VH: QVQLVESGGGVVQPGRSLRLSCAASGFTFSVYGMNWVRQAPGKGLEWVAIIWYDGDNQYYADSVKGRFTISRDNSKNTLYLQMNGLRAEDTAVYYCARDLRTGPFDYWGQGTLVTVSS
VL: EIVLTQSPDFQSVTPKEKVTITCRASQSIGSSLHWYQQKPDQSPKLLIKYASQSFSGVPSRFSGSGSGTDFTLTINSLEAEDAAAYYCHQSSSLPFTFGPGTKVDIKR
notes: also called IL-1β parent antibody
- EC50 (Recombinant Human IL-1β): 5.27 nM

Other lines, results leading:

- EC50 (Aβ1-42 [1]): 0.048 nM
- EC50 (RAGE/FC Chimera [2]): 7.32 nM
B2: DVD293 (bispecific antibody, human IgG1, kappa)
heavy: not shown
light: DIVMTQSQKFMSTSVGDRVSITCKASQNVGTAVAWYQQRPGQSPKLLIFSASNRYTGVPDRFTGSGSGTDFTLTLSNMQPEDLADYFCQQYSSYPLTFGVGTKLELKRTVAAPDVVMTQSPLSLPVTPGEPASISCKSSQSLLDSDGKTYLNWLLQKPGQSPQRLIYLVSKLDSGVPDRFSGSGSGTDFTLKISRVEAEDVGVYYCWQGTHFPRTFGQGTKVEIKRTVAAPSVFIFPPSDEQLKSGTASVVCLLNNFYPREAKVQWKVDNALQSGNSQESVTEQDSKDSTYSLSSTLTLSKADYEKHKVYACEVTHQGLSSPVTKSFNRGEC
notes: DVD-Ig; also called VD293H/VD293L

- EC50 (Aβ1-42 [3]): 0.014 nM
- EC50 (RAGE/FC Chimera [4]): 1.53 nM
B3: DVD294 (bispecific antibody, human IgG1, kappa)
heavy: not shown
light: DVVMTQSPLSLPVTPGEPASISCKSSQSLLDSDGKTYLNWLLQKPGQSPQRLIYLVSKLDSGVPDRFSGSGSGTDFTLKISRVEAEDVGVYYCWQGTHFPRTFGQGTKVEIKRTVAAPDIVMTQSQKFMSTSVGDRVSITCKASQNVGTAVAWYQQRPGQSPKLLIFSASNRYTGVPDRFTGSGSGTDFTLTLSNMQPEDLADYFCQQYSSYPLTFGVGTKLELKRTVAAPSVFIFPPSDEQLKSGTASVVCLLNNFYPREAKVQWKVDNALQSGNSQESVTEQDSKDSTYSLSSTLTLSKADYEKHKVYACEVTHQGLSSPVTKSFNRGEC
notes: DVD-Ig; also called VD294H/VD294L

- Kd [5]: 0.64 nM
- koff [5]: 0.000609 s⁻¹
- kon [5]: 952000 M⁻¹ s⁻¹
- EC50 [6]: 0.13 nM
B4: AB059 (antibody, human IgG1, kappa, V domains shown)
VH: EVQLVESGGGLVQPGSSLKLSCVASGFTFSNYGMNWIRQAPKKGLEWIGMIYYDSSEKHYADSVKGRFTISRDNSKNTLYLEMNSLRSEDTAIYYCAKGTTPDYWGQGVMVTVSS
VL: DVVLTQTPVSLSVTLGDQASMSCRSSQSLEYSDGYTFLEWFLQKPGQSPQLLIYEVSNRFSGVPDRFIGSGSGTDFTLKISRVEPEDLGVYYCFQATHDPLTFGSGTKLEIKR
notes: also called RGMa parent antibody; RGMA parent antibody
